{"source": "the supplement of paper PMC10567573", "parents": {"B1": {"name": "RTN2 (parent)", "chain": "SERPLEDLRLRLDHLGWVARGTGS"}}, "data": [{"variants_of": "B1", "experiment": "protein stability index of a GFP-peptide fusion (GPS, HEK-293T) (PSI 1-6); higher = more stable", "conditions": "c terminus: a fixed tail appended", "values": [{"variant": "SERPLEDLTLRLDHLGWVARGTGS", "protein stability index": 2.27}, {"variant": "SERPLEDLSLRLDHLGWVARGTGS", "protein stability index": 1.2}, {"variant": "SERPLEDLYLRLDHLGWVARGTGS", "protein stability index": 2.26}, {"variant": "SERPLEDLALRLDHLGWVARGTGS", "protein stability index": 2.34}, {"variant": "SERPLEDLWLRLDHLGWVARGTGS", "protein stability index": 1.64}, {"variant": "SERPLEDLPLRLDHLGWVARGTGS", "protein stability index": 2.1}, {"variant": "SERPLEDLRLRLDHLGWVARGTGT", "protein stability index": 2.71}, {"variant": "SERPLEDLRLRLDHLGWVARGTGV", "protein stability index": 3.15}, {"variant": "SERPLEDLRLRLDHLGWVARGTGM", "protein stability index": 1.76}, {"variant": "SERPLEDLRLRLDHLGWVARGTGW", "protein stability index": 2.11}, {"variant": "SERPLEDLRLRLDHLGWVARGTGN", "protein stability index": 3.26}, {"variant": "SERPLEDLRLRLDHLGWVARGTGQ", "protein stability index": 2.61}, {"variant": "SERPLEDLRLRLDHLGWVARGTGH", "protein stability index": 2.03}, {"variant": "SERPLEDLRLRLDHLGWVARGTGR", "protein stability index": 2.36}, {"variant": "SERPLEDLRLRLDHLGWVARGTGY", "protein stability index": 2.12}, {"variant": "SERPLEDLRLRLDHLGWVARGTGE", "protein stability index": 4.04}, {"variant": "SERPLEDLRLRLDHLGWVARGTGD", "protein stability index": 2.59}, {"variant": "SERPLEDLRLRLDHLGWVARGTLS", "protein stability index": 2.44}, {"variant": "SERPLEDLRLRLDHLGWVARGTTS", "protein stability index": 3.04}, {"variant": "SERPLEDLRLRLDHLGWVARGTSS", "protein stability index": 2.61}, {"variant": "SERPLEDLRLRLDHLGWVARGTNS", "protein stability index": 2.98}, {"variant": "SERPLEDLRLRLDHLGWVARGTPS", "protein stability index": 3.34}, {"variant": "SERPLEDLRLRLDHLGWVARGTKS", "protein stability index": 3.55}, {"variant": "SERPLEDLRLRLDHLGWVARGTAS", "protein stability index": 3.6}, {"variant": "SERPLEDLRLRLDHLGWVARGTHS", "protein stability index": 2.6}, {"variant": "SERPLEDLRLRLDHLGWVARGTMS", "protein stability index": 1.87}, {"variant": "SERPLEDLRLRLDHLGWVARGTES", "protein stability index": 3.99}, {"variant": "SERPLEDLRLRLDHLGWVARGTIS", "protein stability index": 3.35}, {"variant": "SERPLEDLRLRLDHLGWVARGTFS", "protein stability index": 2.52}, {"variant": "SERPLEDLRLRLDHLGWVARGTCS", "protein stability index": 2.4}, {"variant": "SERPLEDLRLRLDHLGWVARGWGS", "protein stability index": 3.11}, {"variant": "SERPLEDLRLRLDHLGWVARGHGS", "protein stability index": 2.49}, {"variant": "SERPLEDLRLRLDHLGWVARGMGS", "protein stability index": 2}, {"variant": "SERPLEDLRLRLDHLGWVARGYGS", "protein stability index": 2.79}, {"variant": "SERPLEDLRLRLDHLGWVARGRGS", "protein stability index": 3.6}, {"variant": "SERPLEDLRLRLDHLGWVARGGGS", "protein stability index": 2.23}, {"variant": "SERPLEDLRLRLDHLGWVARGIGS", "protein stability index": 2.48}, {"variant": "SERPLEDLRLRLDHLGWVARGFGS", "protein stability index": 1.3}, {"variant": "SERPLEDLRLRLDHLGWVARGLGS", "protein stability index": 2.11}, {"variant": "SERPLEDLRLRLDHLGWVARGCGS", "protein stability index": 2.75}, {"variant": "SERPLEDLRLRLDHLGWVARGNGS", "protein stability index": 3.95}, {"variant": "SERPLEDLRGRLDHLGWVARGTGS", "protein stability index": 3.89}, {"variant": "SERPLEDLRPRLDHLGWVARGTGS", "protein stability index": 1.74}, {"variant": "SERPLEDLRERLDHLGWVARGTGS", "protein stability index": 3.15}, {"variant": "SERPLEDLRNRLDHLGWVARGTGS", "protein stability index": 2.69}, {"variant": "SERPLEDLRTRLDHLGWVARGTGS", "protein stability index": 1.93}, {"variant": "SERPLEDLRCRLDHLGWVARGTGS", "protein stability index": 2.73}, {"variant": "SERPLEDLRKRLDHLGWVARGTGS", "protein stability index": 2.06}, {"variant": "SERPLEDLRHRLDHLGWVARGTGS", "protein stability index": 2.38}, {"variant": "SERPLEDLRARLDHLGWVARGTGS", "protein stability index": 2.46}, {"variant": "SERPLEDLRFRLDHLGWVARGTGS", "protein stability index": 3.78}, {"variant": "SERPLEDLRMRLDHLGWVARGTGS", "protein stability index": 2.39}, {"variant": "SERPLEDLRDRLDHLGWVARGTGS", "protein stability index": 2.72}, {"variant": "SERPLEDLRRRLDHLGWVARGTGS", "protein stability index": 2.19}, {"variant": "SERPLEDLRSRLDHLGWVARGTGS", "protein stability index": 3.19}, {"variant": "SERPLEDLRLCLDHLGWVARGTGS", "protein stability index": 1.52}, {"variant": "SERPLEDLRLWLDHLGWVARGTGS", "protein stability index": 1.4}, {"variant": "SERPLEDLRLILDHLGWVARGTGS", "protein stability index": 1.41}, {"variant": "SERPLEDLRLNLDHLGWVARGTGS", "protein stability index": 2.58}, {"variant": "SERPLEDLRLYLDHLGWVARGTGS", "protein stability index": 2.7}, {"variant": "SERPLEDLRLFLDHLGWVARGTGS", "protein stability index": 1.79}, {"variant": "SERPLEDLRLQLDHLGWVARGTGS", "protein stability index": 2.9}, {"variant": "SERPLEDLRLTLDHLGWVARGTGS", "protein stability index": 2.28}, {"variant": "SERPLEDLRLALDHLGWVARGTGS", "protein stability index": 1.92}, {"variant": "SERPLEDLRLRLDHLGWVAEGTGS", "protein stability index": 4.02}, {"variant": "SERPLEDLRLRLDHLGWVAPGTGS", "protein stability index": 3.31}, {"variant": "SERPLEDLRLRLDHLGWVAMGTGS", "protein stability index": 3.12}, {"variant": "SERPLEDLRLRLDHLGWVAHGTGS", "protein stability index": 2.77}, {"variant": "SERPLEDLRLRLDHLGWVATGTGS", "protein stability index": 3.14}, {"variant": "SERPLEDLRLRLDHLGWVAFGTGS", "protein stability index": 2.36}, {"variant": "SERPLEDLRLRLDHLGWVACGTGS", "protein stability index": 1.86}, {"variant": "SERPLEDLRLRLDHLGWVALGTGS", "protein stability index": 1.85}, {"variant": "SERPLEDLRLRLDHLGWVAKGTGS", "protein stability index": 3.19}, {"variant": "SERPLEDLRLRLDHLGWVAYGTGS", "protein stability index": 2.34}, {"variant": "SERPLEDLRLRLDHLGWVANGTGS", "protein stability index": 3.55}, {"variant": "SERPLEDLRLRLDHLGWVAQGTGS", "protein stability index": 3.32}, {"variant": "SERPLEDLRLRLDHLGWVASGTGS", "protein stability index": 4.23}, {"variant": "SERPLEDLRLRLDHLYWVARGTGS", "protein stability index": 2.9}, {"variant": "SERPLEDLRLRLDHLIWVARGTGS", "protein stability index": 1.75}, {"variant": "SERPLEDLRLRLDHLQWVARGTGS", "protein stability index": 3.01}, {"variant": "SERPLEDLRLRLDHLEWVARGTGS", "protein stability index": 3.03}, {"variant": "SERPLEDLRLRLDHLFWVARGTGS", "protein stability index": 1.98}, {"variant": "SERPLEDLRLRLDHLWWVARGTGS", "protein stability index": 1.81}, {"variant": "SERPLEDLRLRLDHLVWVARGTGS", "protein stability index": 1.55}, {"variant": "SERPLEDLRLRLDHLAWVARGTGS", "protein stability index": 2.58}, {"variant": "SERPLEDLRLRLDHLPWVARGTGS", "protein stability index": 2.1}, {"variant": "SERPLEDLRLRLFHLGWVARGTGS", "protein stability index": 1.07}, {"variant": "SERPLEDLRLRLSHLGWVARGTGS", "protein stability index": 3.31}, {"variant": "SERPLEDLRLRLCHLGWVARGTGS", "protein stability index": 2.43}, {"variant": "SERPLEDLRLRLHHLGWVARGTGS", "protein stability index": 1.49}, {"variant": "SERPLEDLRLRLVHLGWVARGTGS", "protein stability index": 2.88}, {"variant": "SERPLEDLRLRLYHLGWVARGTGS", "protein stability index": 2.07}, {"variant": "SERPLEDLRLRLTHLGWVARGTGS", "protein stability index": 2.34}, {"variant": "SERPLEDLRLRLGHLGWVARGTGS", "protein stability index": 2.87}]}]}
